Test results reported in paper PMC11687654.

How the values were obtained:
[1] = target: TDP-43-flag (pcDNA3.1 construct) (UniProt Q13148); assay: AlphaScreen or HTRF; proximity AlphaLISA on lysates of co-transfected HEK293FT cells, 72 hr after transfection; anti-FLAG acceptor beads, biotinylated Ataxin-2 antibody and streptavidin donor beads; room temperature
[2] = target: TDP-43mutRRM-flag (pcDNA3.1 construct) (UniProt Q13148); assay: as above
Chain of TDP-43mutRRM-flag (pcDNA3.1 construct) (Q13148 whole entry): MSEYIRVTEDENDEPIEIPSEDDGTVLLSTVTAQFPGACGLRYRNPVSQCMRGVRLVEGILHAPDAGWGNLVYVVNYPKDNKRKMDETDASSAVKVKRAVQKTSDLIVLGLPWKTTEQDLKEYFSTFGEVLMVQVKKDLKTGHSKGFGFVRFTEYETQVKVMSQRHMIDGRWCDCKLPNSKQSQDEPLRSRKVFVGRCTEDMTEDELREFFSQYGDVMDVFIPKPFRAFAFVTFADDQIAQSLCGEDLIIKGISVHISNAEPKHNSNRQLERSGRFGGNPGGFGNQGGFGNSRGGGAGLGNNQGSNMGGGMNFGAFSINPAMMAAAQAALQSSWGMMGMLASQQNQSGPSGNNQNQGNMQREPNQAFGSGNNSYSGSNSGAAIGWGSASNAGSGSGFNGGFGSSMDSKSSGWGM

Chain of Ataxin-2 (ATXN2, pcDNA3.1 construct) (Q99700 whole entry): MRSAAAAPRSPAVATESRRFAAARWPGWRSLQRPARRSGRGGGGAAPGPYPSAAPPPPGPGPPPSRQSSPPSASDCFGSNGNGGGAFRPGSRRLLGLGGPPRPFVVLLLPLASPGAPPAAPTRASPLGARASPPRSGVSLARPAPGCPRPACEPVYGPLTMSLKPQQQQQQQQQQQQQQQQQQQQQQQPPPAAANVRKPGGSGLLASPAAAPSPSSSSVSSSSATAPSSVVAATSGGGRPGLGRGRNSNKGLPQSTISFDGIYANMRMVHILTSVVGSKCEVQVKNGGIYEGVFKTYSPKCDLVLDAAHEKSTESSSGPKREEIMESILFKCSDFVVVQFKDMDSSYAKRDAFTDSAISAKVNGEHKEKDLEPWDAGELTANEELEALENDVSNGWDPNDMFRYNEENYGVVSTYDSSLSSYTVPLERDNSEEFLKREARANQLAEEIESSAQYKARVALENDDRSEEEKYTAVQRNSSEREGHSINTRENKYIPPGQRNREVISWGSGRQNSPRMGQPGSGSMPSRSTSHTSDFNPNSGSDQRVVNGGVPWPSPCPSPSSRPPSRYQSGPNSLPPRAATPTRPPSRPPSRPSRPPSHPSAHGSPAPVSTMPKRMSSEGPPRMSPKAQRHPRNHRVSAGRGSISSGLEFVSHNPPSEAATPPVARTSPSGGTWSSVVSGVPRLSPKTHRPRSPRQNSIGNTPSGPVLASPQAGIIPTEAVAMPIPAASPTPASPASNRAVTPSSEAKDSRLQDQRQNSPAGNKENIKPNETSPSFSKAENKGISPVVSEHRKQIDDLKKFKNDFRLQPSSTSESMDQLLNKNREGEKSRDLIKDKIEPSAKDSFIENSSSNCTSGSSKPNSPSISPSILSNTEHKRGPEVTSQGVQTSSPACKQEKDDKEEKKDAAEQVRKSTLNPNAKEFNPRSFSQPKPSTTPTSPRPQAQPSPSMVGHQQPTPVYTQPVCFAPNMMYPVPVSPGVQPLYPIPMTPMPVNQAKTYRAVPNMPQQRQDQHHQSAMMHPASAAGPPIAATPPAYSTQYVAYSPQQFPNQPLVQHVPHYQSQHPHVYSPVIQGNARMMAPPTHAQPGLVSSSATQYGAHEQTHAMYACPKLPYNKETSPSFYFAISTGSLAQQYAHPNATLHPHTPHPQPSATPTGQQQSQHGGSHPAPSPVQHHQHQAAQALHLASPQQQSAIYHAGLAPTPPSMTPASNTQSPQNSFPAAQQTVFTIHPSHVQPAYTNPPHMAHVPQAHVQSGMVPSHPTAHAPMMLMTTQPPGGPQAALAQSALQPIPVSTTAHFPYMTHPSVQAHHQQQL
Chain of TDP-43-flag (pcDNA3.1 construct) (Q13148 whole entry): as the sequence (Q13148 whole entry) above

Substance: Ataxin-2 (ATXN2, pcDNA3.1 construct) (from UniProt Q99700 1-1313) (natural protein)
- fold increase of the AlphaLISA interaction signal [1]: 22 fold
- fold increase of the AlphaLISA interaction signal [2]: 2 fold
